Assay results reported in patent US20250041437A1, “HUMANIZED MUC1 ANTIBODY AND ANTIBODY DRUG CONJUGATE” (Sun Pharma Advanced Research Company Limited, priority 2023, published 2025).
Changes are numbered by the printed parent chain.

B1: SP66: CDR-grafted humanized 5F3; VH SEQ ID NO: 5, VL SEQ ID NO: 6 (antibody, V domains shown)
VH: EIQLVQSGAEVKKPGSSVKVSCKASGHSITRGSSWHWMRQAPGQGLEWIGYIHYGGGTSYNPSLKSRATLTVDTSTNTAYMELSSLRSEDTAFYFCARYSYDITYRWFFDVWGQGTLVTVSS
VL: DIQMTQSPSTLSASVGDRVTITCRASQNIGTSIHWFQQKPGKAPKLLMYRASESISGVPSRFSGSGSGTEFTLTISSLQPDDFATYYCQQNNNWPLTFGQGTKVEVK
B2: HM4 LM3: variant of SP66; VH HM4 SEQ ID NO: 10, VL LM3 SEQ ID NO: 14 (antibody, V domains shown)
VH: B1 VH with A24V, S25T, V72R, A79F
VL: B1 VL with F36Y, M48I, Y49K, R50Y
B3: HM2 LM2: variant of SP66; VH HM2 SEQ ID NO: 8, VL LM2 SEQ ID NO: 13 (antibody, V domains shown)
VH: B1 VH with A24V, S25T, A68I, L70I, V72R
VL: B1 VL with F36Y, M48I, Y49K
B4: HM3 LM2: variant of SP66; VH HM3 SEQ ID NO: 9, VL LM2 SEQ ID NO: 13 (antibody, V domains shown)
VH: B1 VH with A24V, S25T, V72R
VL: B1 VL with F36Y, M48I, Y49K
B5: HM3 LM3: variant of SP66; VH HM3 SEQ ID NO: 9, VL LM3 SEQ ID NO: 14 (antibody, V domains shown)
VH: B1 VH with A24V, S25T, V72R
VL: B1 VL with F36Y, M48I, Y49K, R50Y
B6: HM4 LM2: variant of SP66; VH HM4 SEQ ID NO: 10, VL LM2 SEQ ID NO: 13 (antibody, V domains shown)
VH: B1 VH with A24V, S25T, V72R, A79F
VL: B1 VL with F36Y, M48I, Y49K
B7: HM5 LM2: variant of SP66; VH HM5 SEQ ID NO: 11, VL LM2 SEQ ID NO: 13 (antibody, V domains shown)
VH: B1 VH with A24V, S25T, A68I, L70I, V72R, A79F
VL: B1 VL with F36Y, M48I, Y49K
B8: HM2 LM3: variant of SP66; VH HM2 SEQ ID NO: 8, VL LM3 SEQ ID NO: 14 (antibody, V domains shown)
VH: B1 VH with A24V, S25T, A68I, L70I, V72R
VL: B1 VL with F36Y, M48I, Y49K, R50Y
B9: HM5 LM3: variant of SP66; VH HM5 SEQ ID NO: 11, VL LM3 SEQ ID NO: 14 (antibody, V domains shown)
VH: B1 VH with A24V, S25T, A68I, L70I, V72R, A79F
VL: B1 VL with F36Y, M48I, Y49K, R50Y
B10: chi 5F3: chimeric anti-MUC1 SEA antibody of WO 2021/186427; variable regions SEQ ID NOs: 42 and 43; parent of the humanized antibodies (antibody, V domains shown)
VH: MRVLILLCLFTAFPGVLSDVQVQESGPDLVKPSQSLSLTCTVTGHSITRGSSWHWIRQFPGNKLEWMGYIHYGGGTSYNPSLKSRISITRDTSKNQFFLQLNSVTTEDTATFFCARYSYDITYRWFFDVWGAGTTVIVSS
VL: MVSTPQFLVFLLFWIPASRGDILLTQSPAILSVSPGERVSFSCRASQNIGTSIHWYQQRKNGSPRLLIKYASESISGIPSRFSGSGSGTDFTLSINSVESEDMADYYCQQNNNWPLTFGAGTKLELK
notes: chimeric anti-MUC1 SEA antibody of WO 2021/186427; parent of the humanized antibodies

Experiments:
[1] = target: T1, human MUC1-expressing SKOV3 cell line (Homo sapiens, UniProt P15941); test: Binding by flow cytometry on SKOV3 cell line
T1 construct: endogenous in cells; host or cells: SKOV3, COLO357, HT29 (human cancer cell lines)
Excerpt: The CDR residues from mouse anti-MUC1 antibody (m5F3) VH- (SEQ ID NO: 1) and VL- (SEQ ID NO: 2) domains were identified according to the three antibody numbering systems and grafted onto the human framework region sequences VH- (SEQ ID NO: 3) and VL- (SEQ ID NO: 4) domains respectively. CDRs from 5F3 were chemically synthesized and subsequently cloned into mammalian expression vectors. The expression vectors with humanized 5F3 heavy chain and light chain were named as SP66-HC and SP66-LC respectively. The VH domain of SP66 is SEQ ID NO: 5, and the VL domain of SP66 is SEQ ID NO: 6. The antibody expressed with SP66-HC and SP66-LC was named as SP66. SP66 was transiently expressed in CHO cells and purified by Protein-A affinity chromatography and evaluated for its binding to the human MUC1 SEA domain using flow cytometry on the human MUC1-expressing SKOV3 cell line (FIG. 1).
Dose dependent binding of surface MUC1 expression on human cancer cells using flow cytometer: Human cancer cell lines (COLO357, HT29 and SKOV3) or mouse cancer cell line expressing human MUC1 (DA3-TM) were harvested enzymatically using 0.25% Trypsin and 0.2% EDTA in Dulbecco's Phosphate Buffered Saline (D-PBS), washed with excess cell culture media and re-suspended at a cell density of 1-2×10^6/mL in the cell-line specific cell culture media. […]

[2] = test system: HT-29 cells; test: Growth inhibition of human cancer cell lines, HT-29; type: cell-based; details: HT-29, no MUC1 expressing
Protocol: (§1) Human cancer cell lines (such as Colo357, HT29, SKOV3, BxPC3 and T47D) were seeded at 5000 cells/well in a 96-well plate flat bottom clear plate and allowed to adhere overnight. Next day, antibody/ADCs were added to these cells at the mentioned concentration or at a mentioned concentration range. Post 5-7 days of treatment, 20 μl of presto blue dye was added to wells and absorbance was recorded at 570 nm (600 nm reference wavelength). Percent survival was calculated against wells containing untreated cells in complete media and IC50 was calculated in Graphpad Prism.

[3] = test system: SKOV-3 cells; test: Growth inhibition of human cancer cell lines, SKOV-3; type: cell-based; details: SKOV-3, moderate MUC1 expressing
Protocol: as §1

[4] = test system: COLO-357 pancreatic carcinoma cells; test: Growth inhibition of human cancer cell lines, COLO-357; details: COLO-357, high MUC1-SEA expressing
[5] = target: T2, recombinant human MUC1-SEA (Homo sapiens, UniProt P15941); test: Binding strength by Surface Plasmon Resonance (SPR); details: Table 2
T2 construct: on recombinant human MUC1-SEA on SPR; purchased Acrobiosystems MU1-H52H9
T2 sequence (P15941 1039-1148 limits assumed): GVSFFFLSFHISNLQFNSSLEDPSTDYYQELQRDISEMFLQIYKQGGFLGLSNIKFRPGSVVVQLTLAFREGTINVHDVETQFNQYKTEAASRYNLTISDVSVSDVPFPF
Protocol: Binding strength assessment using Surface Plasmon Resonance (SPR): MUC1 antigen (Acrobiosystems, Cat: MU1-H52H9) was captured on the anti-His immobilized on CM5 chip at 5 μl/min flow rate for 60 s. Post this concentration range of 0-50 nM of antibody or ADC is passed over MUC1 antigen at a flow rate of 30 μl/min flow rate for 120 s, keeping dissociation time of 1800 s at 25°. The dose response generated is evaluated on BIAevaluation software for the calculation of affinity of antibody to antigen as measured by dissociation constant (KD).

[6] = target: T3, human MUC1 expressing DA3-TM cell line (Homo sapiens, UniProt P15941); test: Dose dependent binding by flow cytometry on DA3-TM cell line; details: MUC1 positive DA3-TM cell line
T3 construct: expressed in transfected cells; host or cells: DA3-TM (mouse cancer cell line)
Excerpt: Dose dependent binding of surface MUC1 expression on human cancer cells using flow cytometer: Human cancer cell lines (COLO357, HT29 and SKOV3) or mouse cancer cell line expressing human MUC1 (DA3-TM) were harvested enzymatically using 0.25% Trypsin and 0.2% EDTA in Dulbecco's Phosphate Buffered Saline (D-PBS), washed with excess cell culture media and re-suspended at a cell density of 1-2×10^6/mL in the cell-line specific cell culture media. The anti-MUC1-SEA mAb (chimeric or humanized IgG)/ADC or the reference IgG antibody/ADC were added to cells at a concentration range of 0-50 nM. The cells were maintained at 4° C. for 1 hour and washed with the excess cell culture media. These cells were further stained with goat anti-human IgG, Fcγ, conjugated with Alexa Fluor 647 (Jackson Immuno Research, West Grove, PA, USA) for 1 hour at 4° C. The concentration for goat anti-human IgG, Fcγ was as per the manufacturer's instructions. Cells were further washed with the excess cell culture media and re-suspended in 100 μl of cell culture media. Cell-associated fluorescence was detected and recorded using flow cytometry (Beckman Coulter, Cytoflex). The mean intensity of fluorescence was obtained from FlowJo software and graph was plotted in Graphpad prism of concentration versus mean intensity of fluorescence.

T1 sequence (P15941 24-1255): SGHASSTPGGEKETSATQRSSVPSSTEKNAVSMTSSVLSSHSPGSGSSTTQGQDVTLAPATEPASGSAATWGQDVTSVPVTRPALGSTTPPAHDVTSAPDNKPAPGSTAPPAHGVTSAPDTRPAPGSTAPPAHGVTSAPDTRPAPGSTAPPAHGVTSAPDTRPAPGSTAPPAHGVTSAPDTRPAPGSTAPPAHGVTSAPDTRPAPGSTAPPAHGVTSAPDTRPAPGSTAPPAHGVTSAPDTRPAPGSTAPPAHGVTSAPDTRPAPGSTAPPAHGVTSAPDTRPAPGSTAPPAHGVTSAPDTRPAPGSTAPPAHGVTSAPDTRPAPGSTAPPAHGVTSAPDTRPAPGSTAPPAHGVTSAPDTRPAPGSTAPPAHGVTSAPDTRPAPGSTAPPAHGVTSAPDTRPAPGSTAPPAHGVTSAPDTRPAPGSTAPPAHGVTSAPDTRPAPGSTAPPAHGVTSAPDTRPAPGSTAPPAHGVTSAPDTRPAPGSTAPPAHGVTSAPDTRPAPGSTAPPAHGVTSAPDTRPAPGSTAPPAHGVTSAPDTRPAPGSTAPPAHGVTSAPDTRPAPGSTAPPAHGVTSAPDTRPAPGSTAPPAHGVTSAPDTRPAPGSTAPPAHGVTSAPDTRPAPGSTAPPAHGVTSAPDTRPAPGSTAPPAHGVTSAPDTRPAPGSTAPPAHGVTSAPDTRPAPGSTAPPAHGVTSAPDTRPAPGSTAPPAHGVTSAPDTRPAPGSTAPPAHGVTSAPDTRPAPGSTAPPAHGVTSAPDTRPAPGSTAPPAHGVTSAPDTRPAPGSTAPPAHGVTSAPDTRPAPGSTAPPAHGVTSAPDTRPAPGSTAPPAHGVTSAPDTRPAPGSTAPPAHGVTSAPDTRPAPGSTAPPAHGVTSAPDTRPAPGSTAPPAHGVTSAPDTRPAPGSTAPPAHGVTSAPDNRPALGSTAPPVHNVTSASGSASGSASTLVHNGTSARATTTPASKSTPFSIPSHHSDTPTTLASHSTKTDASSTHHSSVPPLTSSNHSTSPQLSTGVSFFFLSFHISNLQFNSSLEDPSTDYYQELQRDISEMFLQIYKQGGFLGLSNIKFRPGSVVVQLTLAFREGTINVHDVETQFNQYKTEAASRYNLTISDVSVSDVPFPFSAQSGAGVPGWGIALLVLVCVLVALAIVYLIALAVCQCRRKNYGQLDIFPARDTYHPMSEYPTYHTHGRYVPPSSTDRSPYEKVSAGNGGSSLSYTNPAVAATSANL
T3 sequence (P15941 24-1255): as above

Molecule	kd [5]	further results
B1		binding by flow cytometry (in words) [1]: unable to bind; cytotoxic effect / growth inhibition (in words) [2]: No growth inhibition; cytotoxic effect / growth inhibition (in words) [3]: No growth inhibition; cytotoxic effect / growth inhibition (in words) [4]: No growth inhibition
B2	0.000238 s⁻¹	
B3	0.000255 s⁻¹	
B4	0.000492 s⁻¹	
B5	0.00347 s⁻¹	
B6	0.000261 s⁻¹	
B7	0.000213 s⁻¹	
B8	0.000188 s⁻¹	
B9	0.000198 s⁻¹	
B10	0.000188 s⁻¹	Kd [5]: 0.0427 nM; Kd [6]: 1 ± 0.1 nM
